From article PMC4015309, “Interaction of translationally controlled tumor protein with Apaf-1 is involved in the development of chemoresistance in HeLa cells” (BMC Cancer, 2014)

T1: APAF-530 (Apaf-1 residues 1-530), His-tagged (UniProt O14727-3 1-530)
T1 construct: Apaf-1 residues 1-530; source: E. coli BL21(DE3)pLysS, purified (Ni Sepharose beads); not shown: His tag, C-terminal, kept
T1 sequence (looked up): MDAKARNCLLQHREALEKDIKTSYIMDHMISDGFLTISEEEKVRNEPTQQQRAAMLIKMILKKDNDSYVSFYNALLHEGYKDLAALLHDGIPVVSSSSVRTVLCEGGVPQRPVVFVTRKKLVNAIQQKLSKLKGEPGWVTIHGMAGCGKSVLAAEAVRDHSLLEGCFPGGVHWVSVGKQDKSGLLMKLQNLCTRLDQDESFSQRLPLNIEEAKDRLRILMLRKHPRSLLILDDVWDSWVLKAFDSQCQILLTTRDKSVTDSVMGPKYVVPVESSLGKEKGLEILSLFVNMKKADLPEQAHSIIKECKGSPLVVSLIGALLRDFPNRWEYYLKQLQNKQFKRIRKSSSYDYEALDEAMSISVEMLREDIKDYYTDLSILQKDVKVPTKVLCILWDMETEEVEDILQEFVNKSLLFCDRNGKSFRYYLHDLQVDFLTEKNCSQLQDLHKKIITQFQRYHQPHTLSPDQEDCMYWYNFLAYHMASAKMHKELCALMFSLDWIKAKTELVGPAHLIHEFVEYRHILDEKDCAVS

T2: APAF-420 (Apaf-1 residues 1-420), His-tagged (UniProt O14727-3 1-420)
T2 construct: Apaf-1 residues 1-420; source: E. coli BL21(DE3)pLysS, purified (Ni Sepharose beads); not shown: His tag, C-terminal, kept
T2 sequence (looked up): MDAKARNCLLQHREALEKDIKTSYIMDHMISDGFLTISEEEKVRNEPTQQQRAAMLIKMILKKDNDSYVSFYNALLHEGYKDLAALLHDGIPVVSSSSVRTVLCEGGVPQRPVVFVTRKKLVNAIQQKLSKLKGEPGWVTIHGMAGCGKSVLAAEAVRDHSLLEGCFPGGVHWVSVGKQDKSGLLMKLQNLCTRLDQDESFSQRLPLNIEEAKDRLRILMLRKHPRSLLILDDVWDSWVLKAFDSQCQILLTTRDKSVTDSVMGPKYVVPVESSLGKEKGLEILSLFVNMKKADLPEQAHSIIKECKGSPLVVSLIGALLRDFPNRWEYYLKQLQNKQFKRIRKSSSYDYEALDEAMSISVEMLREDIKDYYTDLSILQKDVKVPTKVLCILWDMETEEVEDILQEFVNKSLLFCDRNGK

T3: Full APAF-1 (residues 1-1194), His-tagged (UniProt O14727-3 1-1194)
T3 construct: Apaf-1, full length, printed length 1194 residues (residues 1-1194): CARD 1-97, CED-4 98-412, WD-40 repeats 413-1194; also called full-length Apaf-1; His-Apaf-1; source: E. coli BL21(DE3)pLysS, purified (Ni Sepharose beads); not shown: His tag, C-terminal, kept
T3 sequence (looked up): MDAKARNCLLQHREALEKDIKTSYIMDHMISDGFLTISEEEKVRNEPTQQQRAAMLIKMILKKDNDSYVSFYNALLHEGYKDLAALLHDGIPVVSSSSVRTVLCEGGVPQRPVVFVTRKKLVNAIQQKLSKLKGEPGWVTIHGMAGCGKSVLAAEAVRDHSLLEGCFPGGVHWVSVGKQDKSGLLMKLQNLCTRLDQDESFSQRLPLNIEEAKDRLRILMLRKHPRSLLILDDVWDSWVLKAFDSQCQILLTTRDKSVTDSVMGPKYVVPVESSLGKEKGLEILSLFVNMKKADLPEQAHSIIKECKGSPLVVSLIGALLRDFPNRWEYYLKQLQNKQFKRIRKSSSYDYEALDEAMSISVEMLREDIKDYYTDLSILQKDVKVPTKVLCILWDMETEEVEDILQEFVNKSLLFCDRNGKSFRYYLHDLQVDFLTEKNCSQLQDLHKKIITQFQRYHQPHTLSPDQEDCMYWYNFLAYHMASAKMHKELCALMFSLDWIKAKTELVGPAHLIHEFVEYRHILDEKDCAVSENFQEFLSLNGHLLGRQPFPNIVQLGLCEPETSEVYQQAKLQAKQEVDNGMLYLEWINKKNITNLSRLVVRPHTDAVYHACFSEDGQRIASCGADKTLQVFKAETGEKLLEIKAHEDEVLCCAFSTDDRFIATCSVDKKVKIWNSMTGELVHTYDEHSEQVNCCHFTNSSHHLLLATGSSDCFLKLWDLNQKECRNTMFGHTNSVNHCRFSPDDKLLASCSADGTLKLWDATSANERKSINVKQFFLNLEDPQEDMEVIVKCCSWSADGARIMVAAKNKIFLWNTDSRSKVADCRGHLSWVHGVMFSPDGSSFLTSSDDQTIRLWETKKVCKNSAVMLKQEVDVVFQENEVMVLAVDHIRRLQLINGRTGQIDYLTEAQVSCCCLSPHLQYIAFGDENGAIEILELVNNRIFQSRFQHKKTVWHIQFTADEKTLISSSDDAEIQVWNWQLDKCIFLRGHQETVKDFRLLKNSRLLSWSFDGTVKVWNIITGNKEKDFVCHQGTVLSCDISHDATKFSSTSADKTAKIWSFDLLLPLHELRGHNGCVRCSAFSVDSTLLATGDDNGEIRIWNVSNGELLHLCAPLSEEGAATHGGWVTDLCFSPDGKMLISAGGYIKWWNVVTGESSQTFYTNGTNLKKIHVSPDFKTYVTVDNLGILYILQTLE

B1: TCTP-GST (GST-tagged recombinant TCTP) (natural protein, human, UniProt P13693 1-172, looked up)
chain: MIIYRDLISHDEMFSDIYKIREIADGLCLEVEGKMVSRTEGNIDDSLIGGNASAEGPEGEGTESTVITGVDIVMNHHLQETSFTKEAYKKYIKDYMKSIKGKLEEQRPERVKPFMTGAAEQIKHILANFKNYQFFIGENMNPDGMVALLDYREDGVTPYMIFFKDGLEMEKC
notes: translationally controlled tumor protein (TCTP); also called GST-tagged TCTP; TCTP-GST protein; source: E. coli, purified (GST fusion protein purification kit)
B2: APAF-97 (Apaf-1 residues 1-97, CARD), His-tagged (domain or fragment, UniProt O14727 1-97, looked up)
chain: MDAKARNCLLQHREALEKDIKTSYIMDHMISDGFLTISEEEKVRNEPTQQQRAAMLIKMILKKDNDSYVSFYNALLHEGYKDLAALLHDGIPVVSSS
notes: Apaf-1 residues 1-97 (caspase recruitment domain, CARD); also called APF-97; CARD of Apaf-1; source: E. coli BL21(DE3)pLysS, purified (Ni Sepharose beads); not shown: His tag, C-terminal, kept

Legend:
Assay in all cases: pull-down; His-tagged Apaf-1 variants or WDR immobilised on Handee spin column, incubated with TCTP-GST; eluates separated by SDS-PAGE and silver stained
Details in all cases: both partners purified
[1] = target: T1, APAF-530 (Apaf-1 residues 1-530), …
[2] = target: T2, APAF-420 (Apaf-1 residues 1-420), …
[3] = target: T3, Full APAF-1 (residues 1-1194), …
[4] = target: B1

Binder	binding result [1]	binding result [2]	binding result [3]	binding result [4]
B1	binds	binds	binds	–
B2	–	–	–	binds
